Ends that are not written are not given here.
Columns and labels:
[1] = Stability of cysteine and cystine-containing peptides in 20% v/v DMSO in WFI (UPLC-UV-MS purity); type: physicochemical; conditions: room temperature
Description: To examine the effect on stability of a peptide that contains cysteine(s) (non-oxidized, C) or cystine(s) (oxidized, C (C)) in a formulation matrix (20% v/v DMSO in WFI (water for injection), four non-oxidized (SEQ ID NO: 1, 2, 3 and 4) and their oxidized, cystine-containing, peptides were manufactured and individually examined in 20% v/v DMSO (aq.)
Each peptide (2.0 mg) was dissolved in 2.0 ml of 0.09% TFA in H2O: acetonitrile (1:1, v/v). Aliquots of 200 μL were transferred to a 1 mL amber vial and then freeze dried overnight. An aliquot (0.2 mg) was then redissolved in 20% v/v DMSO in WFI (1 mL). After swirling for 2 minutes, a sample was analyzed by UPLC-UV-MS. The remainder of the sample was stored at room temperature and analyzed at different time intervals (1 h, 2 h, 3 h, 4 h). The identity and purity of the purified peptides were then determined by UPLC-UV-MS on a Waters Acquity UPLC/TQD system using an C18 Waters Acquity BEH130 analytical column (1.7 μm particle size, 2.1×150 mm, flow 0.4 mL/min) with a linear gradient (5% B to 95% B, linear gradient in 10 min). The absorbance was measured at 220 nm.
MassLynx v4.1 was used to integrate the individual peaks of the chromatogram in the region of the observed peptide-derived signals. The following ApexTrack peak detection parameters were used for integration: peak-to-peak baseline noise was set at automatic, peak width at 5% height was set at automatic, baseline start threshold of 0.05% and baseline end threshold of 0.05%. The detect shoulder function was turned on. The following response thresholds were set: relative height of 0.20 and relative area of 0.10. After the peak of the desired peptide was identified by MS, the corresponding integral of the peak in the UV chromatogram is reported in Table 2 as percentage of the total integrated peaks, purity (% a/a).
Purity of the non-oxidized and oxidized peptide composition over time was evaluated over 4 h. Additional mass adducts, consistent with the formation of intermolecular or intramolecular disulfide bonds, increased over time in all spectra of cysteine-containing peptides compared to cystine-containing peptides. The purity of the non-oxidized peptides set forth in SEQ ID NO: 1, 3 and 4 declined from >90% a/a at to less than 80% a/a with the lowest stability observed for SEQ ID NO: 1 with a purity of 64% a/a after 4 h. For the cystine-containing peptide analogs, the purity remained >90% a/a after 4 h.

[2] = Stability of peptide mixtures under long term and accelerated storage (UPLC); type: physicochemical; conditions: peptide in mixture of 6 peptides
Description: To examine the effect on stability of peptides that contain cystine (oxidized, C (C)) present in a mixture of 6 peptides, two examples of mixtures of both non-cysteine-containing (NCC1-6) and cystine-containing (SEQ ID NO: 1-6) peptides were assessed. Typical chromatograms of the two mixtures are depicted in FIG. 2. Both mixtures were placed on two different storage conditions, ‘long term storage condition’ (i.e. −20±5° C.) and ‘accelerated storage condition’ (i.e. 5±3° C.).
The purity, the level of impurities, and the quantification per peptide of both mixtures are determined by reversed phase rapid UPLC using a mobile phase gradient of ACN/IPA and water with TFA, and UV detection at λ=220 nm. The method quantifies main peaks and impurities in mixtures of peptides. The reporting threshold for the method is 0.10% a/a.
Both mixtures of six peptides were stored under the two conditions described and by using the analytical method as described. The stability was monitored. The quantity of each of the peptides present in the mix (assay values), the purity, and the individual impurities were measured at several timepoints over a period of 3 months. […] Furthermore, focussing on the individual impurities it is shown that no significant degradation has taken place as all levels remain constant and no new impurities have formed.

[3] = system: T cells cultured from PBMC from healthy donors; assay: T cell induction by PRAME-based SLPs, IFNy ELISpot (test 1 and test 2); design: species or system human; key to ELISPOT IFNy / ELISPOT IFNy, summary of the results in the table: − (negative); + (positive); When at least one donor had a positive response, this is denoted as POS; conditions: 2 peptide pools
Description: The capacity of human-PRAME-based SLPs to activate T cells was studied. The biological activity of the synthesized and purified SLPs was tested using PBMC from healthy donors. Monocytes were isolated using anti-CD14 beads by magnet activated cell sorting (MACS) following the protocol of the supplier (Miltenyi Biotec). In short, PBMCs were isolated by centrifugation over a Ficoll gradient and cryopreserved. To generate dendritic cells (DCs), approximately […] thawed PBMC were used for the isolation of CD14 positive cells. The cells were cultured for three days at 37° C. in 2 ml/well of IMDM 4% human serum (HS) containing 800 U/ml GM-CSF and 500 U/ml IL-4 (Peprotech). After 3 days 1 mL/well of IMDM 4% HS with GM-CSF (2400 U/mL) and IL-4 (1500 U/mL) was added to the monocytes-derived DCs and these adhered cells were cultured for an additional 3 days. On day 6, long peptides distributed over 2 pools were added to monocyte-derived DCs of naive donors at a 13 μM concentration and incubated overnight at 37° C. The next day (day 7) peptide-loaded DCs were harvested, irradiated (1000 rad), washed and mixed in a 1:10 ratio with autologous PBMC in IMDM 8% human serum in the presence of IL-7 (10 ng/ml) and IL-12p70 (100 μg/mL).
On day 10 new DCs were generated and loaded, after 6 days, with SLPs on day 16 as described above. The next day, these peptide-loaded DCs were harvested, irradiated (1000 rad) and washed. Also the cultured T cells were harvested. Both were counted and mixed in a 1:10 ratio (DC:T) in IMDM 8% human serum in the presence of IL-7 (10 ng/ml) and IL-12p70 (100 μg/mL) for the first restimulation. On the same day, new DCs were generated as described above that were loaded with SLPs on day 23 as described above. The next day, peptide-loaded DCs were harvested, irradiated (1000 rad) and washed. Also the cultured and restimulated T cells were harvested. Both were counted and mixed in a 1:10 ratio (DC:T) in IMDM 8% human serum in the presence of IL-7 (10 ng/ml) and IL-12p70 (100 μg/mL) for the second restimulation.
On this day 24, also test 1 was started in which DCs loaded with individual SLPs were cultured with harvested T cells from restimulation 1. For test 1, DCs and harvested T cells were cultured in a 1:10 ratio for 2 days after which cells were transferred to a coated ELISpot plate (see description below). On day 24, new DCs were generated as described above that were loaded with SLPs on day 30 as described above. The next day, peptide-loaded DCs were harvested, irradiated (1000 rad) and washed. Also the cultured twice restimulated T cells were harvested. Both were counted and mixed in a 1:10 ratio (DC:T) in IMDM 8% human serum in the presence of IL-2 (30 IU/mL) and IL-12p70 (100 μg/mL) for the third restimulation.
On day 31, also test 2 was started in which DCs loaded with individual SLPs were cultured with harvested T cells from restimulation 2. For test 2, DCs and harvested T cells were cultured in a 1:10 ratio for 2 days after which cells were transferred to a coated ELISpot plate (see description below).
The T cell cultures were restimulated three times in 1-week cycles using peptide loaded autologous moDCs. After the 2nd and 3rd restimulation, reactivity towards single SLPs was tested (test 1 and test 2, respectively). Reactivity was determined by measuring IFNy production using ELISpot.
For ELISpot analysis, multiscreen plates were coated with an IFNy coating antibody overnight at 4° C. The next day, the plate was washed 4× with PBS and blocking was done using IMDM 8% HS at 37° C. for at least one hour. Each sample was tested in triplicate. As a positive control, phytoheamagglutinin (PHA, 1 μg/mL) was added to cells that were not stimulated with SLP after thawing. The plate was cultured overnight at 37° C. Thereafter, cells were discarded and the plate was washed using PBS/0.05% Tween-20. The IFNy detection antibody was diluted and added to each well and incubated for 2 hours at room temperature. […]

Sequence | Purity (% a/a) ([1]; Time 0 h) | Purity (% a/a) ([1]; Time 1 h) | Purity (% a/a) ([1]; Time 2 h) | Purity (% a/a) ([1]; Time 3 h) | Purity (% a/a) ([1]; Time 4 h) | Assay (net peptide content) (mg/vial) ([2]; Initial) | Assay (net peptide content) (mg/vial) ([2]; Storage at 5 ± 3° C., T1M) | Assay (net peptide content) (mg/vial) ([2]; Storage at 5 ± 3° C., T2M) | Assay (net peptide content) (mg/vial) ([2]; Storage at 5 ± 3° C., T3M) | Assay (net peptide content) (mg/vial) ([2]; Storage at −20 ± 5° C., T2M) | Assay (net peptide content) (mg/vial) ([2]; Storage at −20 ± 5° C., T3M) | other results
AARLCCQLDPARDVLCLRPVGAESR [Cysteine (C) containing SEQ ID NO: 4, reference compound] | 96.51 % a/a | 90.72 % a/a | 83.13 % a/a | 77.16 % a/a | 72.13 % a/a |  |  |  |  |  |  | 
AARLCCQLDPARDVLCLRPVGAESR [Cystine(C(C)) containing SEQ ID NO: 4] | 93.50 % a/a | 94.26 % a/a | 93.58 % a/a | 93.16 % a/a | 92.89 % a/a | 0.21 mg/vial | 0.20 mg/vial | 0.21 mg/vial | 0.21 mg/vial | 0.20 mg/vial | 0.21 mg/vial | 
HLSLRGLPVCAFSSAGPCALRFTSA [Cysteine (C) containing SEQ ID NO: 1, reference compound] | 95.01 % a/a | 86.88 % a/a | 78.20 % a/a | 70.34 % a/a | 64.12 % a/a |  |  |  |  |  |  | 
LSAMSTTDLEAYFKDCLFKDWEELG [SEQ ID 2] |  |  |  |  |  | 0.24 mg/vial | 0.24 mg/vial | 0.25 mg/vial | 0.25 mg/vial | 0.25 mg/vial | 0.25 mg/vial | 
VLSRKYTSFPWLLGCTANWILRGTSFVYVPSALNPA [Cysteine (C) containing SEQ ID NO: 3, HBV Pol fragment, unmodified cysteine comparator, reference compound] | 97.66 % a/a | 93.48 % a/a | 87.94 % a/a | 84.12 % a/a | 79.81 % a/a |  |  |  |  |  |  | 
VVNHYFQTRHYLHTLWKAGILYKRETTRSASFCGSPYSW (VVNHYFQTRHYLHTLWKAGILYKRETTRSASFC(Cys)GSPYSW) [SEQ ID 5, HBV Pol fragment SLP with cysteinylated cysteine] |  |  |  |  |  | 0.20 mg/vial | 0.20 mg/vial | 0.21 mg/vial | 0.22 mg/vial | 0.20 mg/vial | 0.22 mg/vial | 
VWTSPRRLVELAGQSLLKDEALAIAALELLPRELF (listed as Homo sapiens) [SEQ ID NO: 42, PRAME-based SLP] |  |  |  |  |  |  |  |  |  |  |  | ELISPOT IFNy ([3]; donor BC290, Test 1): −; ELISPOT IFNy ([3]; donor BC290, Test 2): −; ELISPOT IFNy ([3]; donor BC298, Test 1): +; ELISPOT IFNy ([3]; donor BC298, Test 2): +; ELISPOT IFNy ([3]; donor BC305, Test 1): −; ELISPOT IFNy ([3]; donor BC305, Test 2): −; ELISPOT IFNy ([3]; donor BC306, Test 1): −; ELISPOT IFNy ([3]; donor BC306, Test 2): −; ELISPOT IFNy ([3]; donor BC312, Test 1): −; ELISPOT IFNy ([3]; donor BC312, Test 2): −; ELISPOT IFNy ([3]; donor BC315, Test 1): −; ELISPOT IFNy ([3]; donor BC315, Test 2): −; ELISPOT IFNy ([3]; donor BC321, Test 1): +; ELISPOT IFNy ([3]; donor BC321, Test 2): −
YPALMPLYACIQAKQAFTFSPTYKAFLSKQYMNLYPVAR (cysteinylated cysteine) [SEQ ID 6, HBV Pol fragment SLP with cysteinylated cysteine] |  |  |  |  |  | 0.21 mg/vial | 0.20 mg/vial | 0.21 mg/vial | 0.22 mg/vial | 0.20 mg/vial | 0.22 mg/vial | 

— patent US20260200990A1, “MODIFIED LONG PEPTIDES SUITABLE FOR USE IN IMMUNISATION” (ISABELLA PHARMA B.V., priority 2022, published 2026)
